# Measured values published in patent US7026443.
# Like-named read-outs stand apart in the source and are kept apart here.
# Legend:
# [1] = biological target: HLA-A*0301 (human)
# [2] = biological target: HLA-A*1101 (human)
# [3] = biological target: HLA-A*3301 (human)
# [4] = biological target: HLA-A*3101 (human)
# [5] = biological target: HLA-A*6801 (human)
# [6] = biological target: HLA-A*0301 (human); remark: listed apart in the source
# [7] = biological target: purified HLA-A*0201 molecules (human)
# [8] = biological target: HLA-A*0301 (human); experiment: competition against a 125I-labeled standard probe peptide for purified HLA-A*0301, gel filtration; relative binding
# [9] = biological target: HLA-A*1101 (human); experiment: competition with 125I-radiolabeled standard probe peptide for purified HLA-A*1101, gel filtration
# [10] = biological target: HLA-A*0301 (human); experiment: competition with a 125I-labelled standard peptide for purified HLA-A*0301, gel filtration; value relative to the standard peptide
# [11] = biological target: HLA-A*1101 (human); experiment: competition with 125I-labeled standard peptide for purified HLA-A*1101, gel filtration; conditions: scale: ratio
# [12] = biological target: HLA-A*0301 (human); experiment: competition with 125I-labeled standard peptide for purified HLA-A*0301, gel filtration
# [13] = biological target: HLA-A*1101 (human); experiment: competition with 125I-labelled probe peptide for purified HLA, gel filtration; conditions: scale: ratio
# [14] = biological target: HLA-A*0301 (human); experiment: as above; conditions: scale: ratio
# [15] = biological target: HLA-A*1101 (human); experiment: competition with 125I-labeled standard probe peptide for purified HLA, gel filtration
# [16] = biological target: HLA-A*0301 (human); experiment: as above
# [17] = biological target: HLA-A*0101 (human)
# [18] = biological target: HLA-A*0301 (human); experiment: competition of unlabeled peptide against 125I-labeled standard probe peptide for purified HLA-A*0301, gel filtration
# [19] = biological target: HLA-A*1101 (human); experiment: competition with 125I-labelled standard probe peptide for purified HLA-A*1101, gel filtration
# [20] = biological target: HLA-A*1101 (human); experiment: competition binding assay; purified HLA-A*1101, unlabeled peptide against 125I-labeled probe peptide, gel filtration
# [21] = biological target: HLA-A*1101 (human); experiment: competition against a 125I-labelled standard probe peptide for purified HLA-A*1101, bound and free separated by gel filtration; value relative to the standard peptide
# [22] = biological target: HLA-A*1101 (human); experiment: competition with a 125I-labeled standard probe peptide for purified HLA-A*1101, gel filtration
# [23] = biological target: HLA-A*0201 (human); experiment: competition with a 125I-labeled standard peptide for purified HLA-A*0201, gel filtration; ratio to the standard peptide
# [24] = biological target: purified HLA-A*0201 molecules (human); experiment: competition with 125I-labelled standard probe peptide for purified HLA-A*0201; bound and free peptide separated by gel filtration
# [25] = biological target: HLA-B*5101 (human); experiment: competition with 125I-labelled standard peptide for purified HLA, gel filtration; relative binding
# [26] = biological target: HLA-B*3501 (human); experiment: as above
# [27] = biological target: HLA-B*0702 (human); experiment: as above
# [28] = biological target: HLA-B*5301 (human); experiment: as above
# [29] = biological target: HLA-A*1101 (human); experiment: inhibition of binding of a 125I-labelled standard peptide to purified HLA-A*1101, with gel filtration separation
# [30] = biological target: HLA-A*0201 (human); experiment: competition with a 125I-labelled probe peptide for purified HLA-A*0201, gel filtration
# [31] = biological target: HLA-A*1101 (human); experiment: competition of unlabeled peptide with 125I-labeled standard probe peptide for purified HLA-A*1101, gel filtration
# [32] = biological target: HLA-A*0101 (human); experiment: competition with 125I-labelled standard peptide for purified HLA-A*0101, bound and free separated by gel filtration
# [33] = biological target: HLA-A*0201 (human); experiment: competition with 125I-labelled standard peptide on purified HLA, gel filtration; conditions: remark: other sources report otherwise
# [34] = biological target: HLA-A*0203 (human); experiment: as above; conditions: remark: other sources report otherwise
# [35] = biological target: HLA-A*0206 (human); experiment: as above; conditions: remark: other sources report otherwise
# [36] = biological target: HLA-A*0201 (purified HLA class I molecule) (human); experiment: competition with 125I-labeled standard peptide for purified HLA-A*0201, gel filtration; ratio to the standard peptide
# [37] = biological target: HLA-A*0301 (human); experiment: competition of unlabeled peptide with 125I-labeled standard probe peptide for purified HLA-A*0301, gel filtration
# [38] = biological target: HLA-A*0201 (purified HLA class I molecule) (human); experiment: competition assay: unlabeled peptide inhibits binding of a 125I-labeled standard probe peptide to purified HLA-A*0201, gel filtration read-out
binder,measurement,setting,value
"CATMCRHYK (modifications not checked) [HPV16 E1 peptide … (position 405, 9 amino acids)]",relative binding ratio (IC50 of standard peptide / IC50 of test peptide) (ratio to standard peptide),[1],0.0012
same,binding affinity ratio (IC50 of standard peptide / IC50 of test peptide),[2],0.0098
same,binding affinity ratio (IC50 of standard peptide / IC50 of test peptide),[3],0.01
same,binding affinity ratio (IC50 of standard peptide / IC50 of test peptide),[4],0.0077
same,binding affinity ratio (IC50 of standard peptide / IC50 of test peptide),[5],0.0056
same,binding affinity ratio (IC50 of standard peptide / IC50 of test peptide),[6],0.0012
"SLACSWGMV (modifications not checked) [HPV31 E1 peptide … (position 246, 9 amino acids)]",relative binding ratio (IC50 of standard peptide / IC50 of test peptide),[7],0.082
"WTYFDTYMR (modifications not checked) [HPV18 E1 peptide … (position 536, 9 amino acids)]",binding affinity ratio (IC50 of the standard peptide / IC50 of the test peptide),[8],0.0005
same,relative binding ratio (IC50 of standard peptide / IC50 of test peptide),[9],0.012
"GDTPEWIQR (modifications not checked) [HPV45 E1 peptide … (position 327, 9 amino acids)]",relative binding ratio (IC50 of standard peptide / IC50 of test peptide),[10],0.0008
"WLQPLADAK (modifications not checked) [HPV16 E1 peptide … (position 509, 9 amino acids)]",relative binding ratio (A*1101),[11],0.0002
same,relative binding ratio (IC50 of standard peptide / IC50 of test peptide),[12],0.0005
same,binding affinity ratio (relative to standard peptide),[13],0.0002
same,binding affinity ratio (relative to standard peptide),[14],0.0005
"YVQAIVDKK (modifications not checked) [HPV18 E1 peptide … (position 19, 9 amino acids)]",relative binding ratio (IC50 of standard peptide / IC50 of test peptide) (ratio to standard peptide),[15],0.029
same,relative binding ratio (IC50 of standard peptide / IC50 of test peptide) (ratio to standard peptide),[16],0.0005
same,binding affinity ratio (IC50 of the standard peptide / IC50 of the test peptide),[8],0.0005
same,relative binding ratio (IC50 of standard peptide / IC50 of test peptide),[9],0.029
"VVLLLVRYK (modifications not checked) [HPV16 E1 peptide … (position 274, 9 amino acids)]",relative binding ratio (A*1101),[11],0.36
same,relative binding ratio (IC50 of standard peptide / IC50 of test peptide),[12],1
same,binding affinity ratio (relative to standard peptide),[13],0.36
same,binding affinity ratio (relative to standard peptide),[14],1
KISEYRHYCY (modifications not checked) [HPV16 E6 79 …],binding affinity ratio (IC50 of standard peptide / IC50 of test peptide),[17],0.009
"LCPEEKQRH (modifications not checked) [HPV31 E6 peptide … (position 110, 9 amino acids)]",relative binding ratio (IC50 of standard peptide / IC50 of test peptide) (ratio to standard peptide),[18],0.0003
same,relative binding ratio (IC50 of standard peptide / IC50 of test peptide) (ratio to standard peptide),[19],0.0001
EGTGCNGWFY (modifications not checked) [HPV31 E1 position 10 peptide … (SEQ ID NO: 41699)],binding affinity ratio (relative to the standard peptide),[20],0.0002
"QVLHVLKRK (modifications not checked) [HPV18 E1 peptide … (position 80, 9 amino acids)]",relative binding ratio (IC50 of standard peptide / IC50 of test peptide),[21],0.002
"PLCPEEKQR (modifications not checked) [HPV31 E6 peptide … (position 109, 9 amino acids)]",relative binding ratio (IC50 of standard peptide / IC50 of test peptide) (ratio to standard peptide),[18],0.0002
same,relative binding ratio (IC50 of standard peptide / IC50 of test peptide) (ratio to standard peptide),[19],0.0005
ISEYRHYCY (modifications not checked) [HPV16 E6 80 …],binding affinity ratio (IC50 of standard peptide / IC50 of test peptide),[17]; remark: other sources report otherwise,0.31
"AFRDLCIVY (modifications not checked) [HPV16 E6 peptide … (position 53, 9 amino acids; SEQ ID NO: 40120)]",relative binding ratio (IC50 of standard peptide / IC50 of test peptide),[22],0.0001
"GVLILALLR (modifications not checked) [HPV45 E1 peptide … (position 265, 9 amino acids)]",relative binding ratio (IC50 of standard peptide / IC50 of test peptide),[10],0.0058
"LLTTNIHPA (modifications not checked) [HPV18 E1 peptide … (position 570, 9 amino acids)]",relative binding ratio (IC50 of standard peptide / IC50 of test peptide),[23],0.18
MVQWAYDNDI (modifications not checked) [HPV16 E1 360 peptide …],binding affinity ratio (IC50 of the standard peptide / IC50 of the test peptide),[24],0.0001
"SPRLQEISL (modifications not checked) [HPV45 E1 110 … (B07 supermotif peptide, 9 amino acids)]",binding affinity ratio (IC50 of standard peptide / IC50 of test peptide),[25],0.0005
same,binding affinity ratio (IC50 of standard peptide / IC50 of test peptide),[26],0.0008
same,binding affinity ratio (IC50 of standard peptide / IC50 of test peptide),[27],0.62
same,binding affinity ratio (IC50 of standard peptide / IC50 of test peptide),[28],0.0002
YNIVTFCCK (modifications not checked) [HPV16 E7 position 52 9-mer peptide … (SEQ ID NO: 40241)],relative binding ratio (IC50 of standard peptide / IC50 of test peptide),[29],0.0022
AIFGVNPTI (modifications not checked) [HPV18 E1 246 peptide … (SEQ ID NO: 3274)],relative binding ratio (IC50 of standard peptide / IC50 of test peptide) (ratio to standard peptide),[30],0.0021
TMLCMCCK (modifications not checked) [HPV18 E7 60-67 peptide TMLCMCCK (SEQ ID NO: 41224)],binding affinity ratio (IC50 of standard peptide / IC50 of test peptide) (ratio relative to standard peptide),[31],0.024
ELRHYSDSVY (modifications not checked) [HPV18 E6 77 peptide …],relative binding ratio (IC50 of the standard peptide / IC50 of the test peptide) (ratio to standard peptide),[32],0.0037
YMLDLQPETT (modifications not checked) [HPV16 E7 11 …],binding affinity ratio (IC50 of standard peptide / IC50 of test peptide),[33],0.15
same,binding affinity ratio (IC50 of standard peptide / IC50 of test peptide),[34],0.0001
same,binding affinity ratio (IC50 of standard peptide / IC50 of test peptide),[35],1.7
"CLDCKWGVLI (modifications not checked) [HPV45 E1 peptide … (position 259, 10 amino acids)]",relative binding ratio (IC50 of standard peptide / IC50 of test peptide),[36],0.0002
LILALLRYK (modifications not checked) [HPV45 E1 267-275 peptide … (SEQ ID NO: 37427)],relative binding ratio (IC50 of the standard peptide / IC50 of the test peptide),[37],0.27
"LLITSNINA (modifications not checked) [HPV31 E1 peptide … (position 542, 9 amino acids)]",relative binding ratio (IC50 of standard peptide / IC50 of test peptide),[38],0.0022
"QLKCPPLLI (modifications not checked) [HPV31 E1 peptide … (position 536, 9 amino acids)]",relative binding ratio (IC50 of standard peptide / IC50 of test peptide),[7],0.0049
